Earlier results, collected in publication PMC4584479.
Read-outs that look alike come from different tables or passages of the source.

Assays:
[1] = biological target: IL-15Rβ/γc (Homo sapiens) (UniProt P14784)
[2] = biological target: IL-15Rβ/γc (Homo sapiens) (UniProt P14784); remark: listed apart in the source

Sequence of UniProt P14784 (P14784 27-240, chain 1 of 2): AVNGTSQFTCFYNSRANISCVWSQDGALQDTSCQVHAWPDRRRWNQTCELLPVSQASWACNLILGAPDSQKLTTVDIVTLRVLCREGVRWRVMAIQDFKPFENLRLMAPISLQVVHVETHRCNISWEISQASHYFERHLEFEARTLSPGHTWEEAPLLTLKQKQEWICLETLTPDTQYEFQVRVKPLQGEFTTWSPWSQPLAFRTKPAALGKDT
Sequence of UniProt P14784 (P31785 23-262, chain 2 of 2, further chain): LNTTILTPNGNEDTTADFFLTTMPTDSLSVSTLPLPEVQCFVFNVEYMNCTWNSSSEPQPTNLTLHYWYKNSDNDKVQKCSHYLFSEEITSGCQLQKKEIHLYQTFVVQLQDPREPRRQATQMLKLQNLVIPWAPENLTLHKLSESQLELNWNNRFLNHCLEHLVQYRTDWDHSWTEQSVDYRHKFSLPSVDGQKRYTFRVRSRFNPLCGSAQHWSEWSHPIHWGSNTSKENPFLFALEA

| Substance | Kd [1] [nM] | Kd [2] [nM] |
| --- | --- | --- |
| IL-15/IL-15Rα-sushi fusion protein (IL-15 hyperagonist) sushi domain of IL-15Rα fused to IL-15 (from UniProt P40933) | 0.78 | – |
| IL-15 (from UniProt P40933) | – | 13.5 |
